Patent US20110250613A1, “Arrayed Multiple Ubiquitin Binding Domains as Linkage-specific Polyubiquitin Affinity Reagents” (THE JOHNS HOPKINS UNIVERSITY, priority 2009, published 2011)

Experiments:
Settings in all cases: free fluorescent UBA domain
K48-Ub2 = target: T1, K48-Ub2 (Homo sapiens, UniProt P0CG47, K48R); assay: Fluorescence anisotropy binding of fluorescent free UBA domains to K48-Ub2
T1 construct: Ub and K48- and K63-linked diUb and tetraUb were made as described; made in house
Text: (§1) Fluorescent Labeling. Ede1 UBA, hHR23A UBA1, Dsk2 UBA and Ddi1 UBA were produced as intein fusions and fluorescently labeled using expressed protein ligation as described in Scheibner et al., 2003. The dipeptide used for Ede1 labeling was Cys-Lys, with NHS-rhodamine (Pierce) coupled to the lysine amino group, and was a kind gift from Philip Cole (Johns Hopkins School of Medicine). MALDI mass spectroscopy confirmed the addition of the fluorescent dipeptide to the Ede1 UBA domain and that there was complete cleavage of the initiating methionine residue. hHR23A UBA1, Dsk2, and Ddi1 UBAs were labeled in a similar way, except that the dipeptide contained a fluorescein moiety instead of rhodamine. The fluorescein-labeled dipeptide was made as described in Scheibner et al., 2003. […]
(§2) Fluorescence Anisotropy Binding Assays. Fluorescence anisotropy measurements were performed as described (Sims and Cohen, 2009) using excitation and emission maxima of 492 nm/520 nm (fluorescein), 556 nm/569 nm (Alexa Fluor 546), or 555 nm/578 nm (rhodamine), in binding buffer at 25° C. The concentrations of the fluorescent proteins were calculated using published extinction coefficients (Invitrogen-Molecular Probes). polyUb concentrations were assessed from absorbance at 280 nm using the Ub extinction coefficient of 0.16 (mg per ml)^−1 cm^'1.49. […]

K48-Ub4 = assay: Fluorescence anisotropy binding of fluorescent free UBA domains to K48-Ub4
Text: as §1, §2

K63-Ub2 = target: T2, K63-Ub2 (Homo sapiens, UniProt P0CG47, K63R); assay: Fluorescence anisotropy binding of fluorescent free UBA domains to K63-Ub2
T2 construct: Ub and K48- and K63-linked diUb and tetraUb were made as described; made in house
Text: as §1, §2

K63-Ub4 = target: T3, K63-Ub4 (Homo sapiens, UniProt P0CG47, K63R); assay: Fluorescence anisotropy binding of fluorescent free UBA domains to K63-Ub4
T3 construct: Ub and K48- and K63-linked diUb and tetraUb were made as described; made in house
Text: as §1, §2

B1: Ede1 (protein, UniProt P34216 1-1381, looked up)
EH domain-containing and …: MASITFRTPLSSQEQAFYNQKFHQLDTEDLGVVTGEAVRPLFASSGLPGQLLSQVWATVDIDNKGFLNLNEFSAALRMIAQLQNAPNQPISAALYESTPTQLASFSINQNPAPMQSGSATGNTNNTDIPALSSNDIAKFSQLFDRTAKGAQTVAGDKAKDIFLKARLPNQTLGEIWALCDRDASGVLDKSEFIMAMYLIQLCMSHHPSMNTPPAVLPTQLWDSIRLEPVVVNQPNRTTPLSANSTGVSSLTRHSTISRLSTGAFSNAASDWSLSFEKKQQFDAIFDSLDKQHAGSLSSAVLVPFFLSSRLNQETLATIWDLADIHNNAEFTKLEFAIAMFLIQKKNAGVELPDVIPNELLQSPALGLYPPNPLPQQQSAPQIAIPSRASKPSLQDMPHQVSAPAVNTQPTVPQVLPQNSNNGSLNDLLALNPSFSSPSPTKAQTVVQNNTNNSFSYDNNNGQATLQQQQPQQPPPLTHSSSGLKKFTPTSNFGQSIIKEEPEEQEQLRESSDTFSAQPPPVPKHASSPVKRTASTTLPQVPNFSVFSMPAGAATSAATGAAVGAAVGAAALGASAFSRSSNNAFKNQDLFADGEASAQLSNATTEMANLSNQVNSLSKQASITNDKKSRATQELKRVTEMKNSIQIKLNNLRSTHDQNVKQTEQLEAQVLQVNKENETLAQQLAVSEANYHAAESKLNELTTDLQESQTKNAELKEQITNLNSMTASLQSQLNEKQQQVKQERSMVDVNSKQLELNQVTVANLQKEIDGLGEKISVYLTKQKELNDYQKTVEEQHAQLQAKYQDLSNKDTDLTDREKQLEERNRQIEEQENLYHQHVSKLQEMFDDLSQRKASFEKADQELKERNIEYANNVRELSERQMNLAMGQLPEDAKDIIAKSASNTDTTTKEATSRGNVHEDTVSKFVETTVENSNLNVNRVKDDEEKTERTESDVFDRDVPTLGSQSDSENANTNNGTQSGNETANPNLTETLSDRFDGDLNEYGIPRSQSLTSSVANNAPQSVRDDVELPETLEERDTINNTANRDNTGNLSHIPGEWEATPATASTDVLSNETTEVIEDGSTTKRANSNEDGESVSSIQESPKISAQPKAKTINEEFPPIQELHIDESDSSSSDDDEFEDTREIPSATVKTLQTPYNAQPTSSLEIHTEQVIKYPAPGTSPSHNEGNSKKASTNSILPVKDEFDDEFAGLEQAAVEEDNGADSESEFENVANAGSMEQFETIDHKDLDDELQMNAFTGTLTSSSNPTIPKPQVQQQSTSDPAQVSNDEWDEIFAGFGNSKAEPTKVATPSIPQQPIPLKNDPIVDASLSKGPIVNRGVATTPKSLAVEELSGMGFTEEEAHNALEKCNWDLEAATNFLLDSA
In the case of B1, the Kd (K48-Ub2) is reported as 86 µM, the Kd (K48-Ub4) is reported as 31 µM and the Kd (K63-Ub2) is reported as 120 µM. The Kd (K63-Ub4) was 54 µM.
